Starred links: 1 amine or outer side, 2 acyl side, 3 side chain; linkers in the order of their positions; H or OH if unused. Positions of bridges follow the written chain, without caps; N, C: chain ends. Non-standard residues stand in square brackets, D forms with d. Groups on a side chain read outwards from the residue. Primed or numbered codes have the meaning given here. *: point of attachment. PEG4′ = bifunctional PEG linker with 4 polyethylene glycol units; PEG12 = NCCOCCOCCOCCOCCOCCOCCOCCOCCOCCOCCOCCOCCC(=O)O; Phe(4-tBu) = CC(C)(C)c1ccc(C[C@H](N)C(=O)O)cc1; Docosanoyl = CCCCCCCCCCCCCCCCCCCCCC(=O)*; Dip = N[C@H](C(=O)O)C(c1ccccc1)c1ccccc1; γGlu = O=C(O)[C@H](CCC(=O)[*:2])N[*:1]; Palmitoyl = CCCCCCCCCCCCCCCC(=O)*; Pen = CC(C)(S)[C@H](N)C(=O)O; Isovaleryl = CC(C)CC(=O)*; PEG2′ = not defined here; PEG8′ = not defined here; Npc = nipecotic acid; Ahx = NCCCCCC(=O)O; Sar = CNCC(=O)O
T1: human ferroportin (SLC40A1) fused with GFP, stably expressed in HEK293 cells (human, UniProt Q9NP59 1-571)
T1 sequence (looked up): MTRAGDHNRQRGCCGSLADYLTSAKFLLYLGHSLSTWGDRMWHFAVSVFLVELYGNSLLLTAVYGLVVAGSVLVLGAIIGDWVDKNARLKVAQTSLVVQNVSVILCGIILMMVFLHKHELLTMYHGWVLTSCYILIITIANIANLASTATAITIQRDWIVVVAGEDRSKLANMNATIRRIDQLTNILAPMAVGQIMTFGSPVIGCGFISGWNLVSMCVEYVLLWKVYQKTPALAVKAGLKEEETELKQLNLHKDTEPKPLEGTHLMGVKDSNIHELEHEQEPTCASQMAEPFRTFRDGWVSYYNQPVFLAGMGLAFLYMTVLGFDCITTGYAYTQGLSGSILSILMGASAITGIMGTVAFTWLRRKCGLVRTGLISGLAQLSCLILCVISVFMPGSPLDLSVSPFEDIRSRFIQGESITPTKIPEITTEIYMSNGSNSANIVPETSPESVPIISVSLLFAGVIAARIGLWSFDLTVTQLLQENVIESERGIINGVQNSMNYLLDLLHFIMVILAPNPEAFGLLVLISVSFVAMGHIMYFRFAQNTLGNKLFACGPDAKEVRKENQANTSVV


Target: T1, human ferroportin (SLC40A1) fused with …
Test: cell-based or functional assay

Binder | FPN IC50
DTHFPCIKXKKC (Isovaleric acid-DTHFPCI-[(D)Lys]-[b-homoPhe]-Lys[PEG11-Palm]-K-[Cys]-NH2) [Compd ID 101] | 0.024 µM
DTHFPCIKFKPC (Isovaleric acid-DTHFPCIKF-Lys[PEG11-Palm]-PC-NH2) [Compd ID 7] | 0.01 µM
Isovaleryl-DTHFPCI[dK]FK([PEG12-Palmitoyl])RC-NH2 (disulfide 6-12 (inferred)) [Compd ID 79] | 0.022 µM
Isovaleryl-DTHFPCI[dK]FK([PEG12-Palmitoyl])CK-NH2 (disulfide 6-11 (inferred)) [Compd ID 78] | 0.017 µM
Isovaleryl-DTH[Dip][Npc]CI[dK][Phe(4-tBu)]K([PEG12-Palmitoyl])KC-NH2 (disulfide 6-12 (inferred)) [Compd ID 110] | 0.003 µM
DTHFPCIKXKKC (Isovaleric acid-DTHFPCI-[(D)Lys]-[Dpa]-Lys[PEG11-Palm]-K-[Cys]-NH2) [Compd ID 100] | 0.016 µM
Isovaleryl-DTHFPCI[dK]FK([PEG12-Palmitoyl])K[dC]-NH2 (disulfide 6-12 (inferred)) [Compd ID 97] | 0.041 µM
Isovaleryl-DTHFPCI[dK]FK([PEG12-Palmitoyl])PPRSCK-NH2 (disulfide 6-15 (inferred); not fully specified) [Compd ID 76] | 0.016 µM
DTHFPCIKFKXC (Isovaleric acid-DTHFPCI-[(D)Lys]-F-Lys[PEG11-Palm]-Dap-[Cys]-NH2) [Compd ID 99] | 0.021 µM
Isovaleryl-DTHFPCI[dK]FK([PEG12-Palmitoyl])PRSKC-NH2 (disulfide 6-15 (inferred)) [Compd ID 73] | 0.011 µM
Isovaleryl-DTHFPCI[dK]FK([PEG12-Palmitoyl])PRCK-NH2 (disulfide 6-13 (inferred)) [Compd ID 77] | 0.015 µM
DTHFPCIKFKPRSC (Isovaleric acid-DTHFPCIKF-Lys[PEG11-Palm]-PRSC-NH2) [Compd ID 5] | 0.03 µM
Isovaleryl-DTHFPCI[dK]FK([PEG12-Palmitoyl])PRSC-NH2 (disulfide 6-14 (inferred)) [Compd ID 72] | 0.012 µM
Isovaleryl-DTHFPCI[dK]FK([Ahx-Palmitoyl])KC-NH2 (disulfide 6-12 (inferred)) [Compd ID 86] | 0.009 µM
Isovaleryl-DTHFPCI[dK]FK([PEG2′-PEG2′-C18 acid])KC-NH2 (disulfide 6-12 (inferred)) [Compd ID 89] | 0.027 µM
Isovaleryl-DTH[Dip][Npc]CI[dK]FK([PEG12-Palmitoyl])KC-NH2 (disulfide 6-12 (inferred)) [Compd ID 109] | 0.002 µM
Isovaleryl-DTHFPCI[dK]FK([PEG12-Palmitoyl])K[Pen]-NH2 (disulfide 6-12 (inferred)) [Compd ID 98] | 0.04 µM
Isovaleryl-DTHFPCI[dK]FK([PEG12-Palmitoyl])[dR]C-NH2 (disulfide 6-12 (inferred)) [Compd ID 81] | 0.009 µM
Isovaleryl-DTHFPCI[dK]F[dK]([PEG12-Palmitoyl])[dK]C-NH2 (disulfide 6-12 (inferred)) [Compd ID 107] | 0.06 µM
Isovaleryl-DTHFPCI[dK]FK([PEG12-Palmitoyl])HC[dH]-NH2 (disulfide 6-12 (inferred)) [Compd ID 84] | 0.016 µM
DTHXPCIKFKKC (Isovaleric acid-D-T-H-[Dpa]-P-C-I-[(D)Lys]-F-Lys[PEG11-Palm]-K-[Cys]-NH2) [Compd ID 104] | 0.027 µM

Binder | FPN IC50
Isovaleryl-DTHFPCI[dK]FK([PEG2′-PEG2′-Ahx-Palmitoyl])KC-NH2 (disulfide 6-12 (inferred)) [Compd ID 90] | 0.011 µM
Isovaleryl-DTHFPCI[dK]FK(Docosanoyl)KC-NH2 (disulfide 6-12 (inferred)) [Compd ID 96] | 0.03 µM
DTHFPCIKXKKC (Isovaleric acid-DTHFPCI-[(D)Lys]-[bhomoPhe]-Lys[PEG11-Palm]-K-[Cys]-NH2) [Compd ID 103] | 0.02 µM
Isovaleryl-DTHFPCI[dK]FK([PEG4′-Palmitoyl])KC-NH2 (disulfide 6-12 (inferred)) [Compd ID 91] | 0.014 µM
Isovaleryl-DTHFPCI[dK]FK([PEG12-Palmitoyl])PRSK[Sar]C-NH2 (disulfide 6-16 (inferred)) [Compd ID 74] | 0.009 µM
Isovaleryl-DTHFPCI[dK]FK([PEG12-Palmitoyl])KC[dK]-NH2 (disulfide 6-12 (inferred)) [Compd ID 83] | 0.04 µM
Isovaleryl-DTHFPCI[dK]FK([PEG12-Palmitoyl])RC[dR]-NH2 (disulfide 6-12 (inferred)) [Compd ID 85] | 0.027 µM
Isovaleryl-DTHFPCI[dK]FK([PEG8′-Palmitoyl])KC-NH2 (disulfide 6-12 (inferred)) [Compd ID 95] | 0.028 µM
Isovaleryl-DTHFPCI[dK]FK([PEG4′-γGlu-Palmitoyl])KC-NH2 (disulfide 6-12 (inferred)) [Compd ID 94] | 0.009 µM
Isovaleryl-DTHFPCI[dK]FK([PEG4′-Ahx-Palmitoyl])KC-NH2 (disulfide 6-12 (inferred)) [Compd ID 92] | 0.021 µM
DTHFPCIKXKKC (Isovaleric acid-DTHFPCI-[(D)Lys]-[Nal]-Lys[PEG11-Palm]-K-[Cys]-NH2) [Compd ID 102] | 0.017 µM
DTHFPCIKFKPRC (Isovaleric acid-DTHFPCIKF-Lys[PEG11-Palm]-PRC-NH2) [Compd ID 6] | 0.017 µM
Isovaleryl-DTHFPCIFK([PEG12-Palmitoyl])KC-NH2 (disulfide 6-11 (inferred)) [Compd ID 106] | 0.04 µM
Isovaleryl-DTHFPCI[dK]FK([PEG2′-Palmitoyl])KC-NH2 (disulfide 6-12 (inferred)) [Compd ID 87] | 0.015 µM
Isovaleryl-DTHFPCI[dK]FK([PEG4′-PEG4′-Palmitoyl])KC-NH2 (disulfide 6-12 (inferred)) [Compd ID 93] | 0.018 µM
Isovaleryl-DTHFPCI[dK]FK([PEG2′-PEG2′-Palmitoyl])KC-NH2 (disulfide 6-12 (inferred)) [Compd ID 88] | 0.013 µM
DTHXPCIKXKKC (Isovaleric acid-D-T-H-[Dpa]-P-C-I-[(D)Lys]-[b-homoPhe]-Lys[PEG11-Palm]-[(D)Lys]-[Cys]-NH2) [Compd ID 105] | 0.031 µM
Isovaleryl-DTHFPCI[dK]FK([PEG12-Palmitoyl])KC-NH2 (disulfide 6-12 (inferred)) [Compd ID 80] | 0.014 µM
Isovaleryl-DTHFPCI[dK]FK([PEG12-Palmitoyl])[dK]C-NH2 (disulfide 6-12 (inferred)) [Compd ID 82] | 0.013 µM
DTHFPCIKFKPRSKC (Isovaleric acid-DTHFPCIKF-Lys[PEG11-Palm]-PRSKC-NH2) [Compd ID 4] | 0.032 µM
Isovaleryl-DTHFPCI[dK]FK([PEG12-Palmitoyl])PRSKCK-NH2 (disulfide 6-15 (inferred)) [Compd ID 75] | 0.014 µM
